Where “and” joins values, the source holds several entries; their conditions need not be identical. Equal entries are not always repeated.
T1: TRF2 (full length, recombinant His6-tagged) (human), Q15554
T1 chain: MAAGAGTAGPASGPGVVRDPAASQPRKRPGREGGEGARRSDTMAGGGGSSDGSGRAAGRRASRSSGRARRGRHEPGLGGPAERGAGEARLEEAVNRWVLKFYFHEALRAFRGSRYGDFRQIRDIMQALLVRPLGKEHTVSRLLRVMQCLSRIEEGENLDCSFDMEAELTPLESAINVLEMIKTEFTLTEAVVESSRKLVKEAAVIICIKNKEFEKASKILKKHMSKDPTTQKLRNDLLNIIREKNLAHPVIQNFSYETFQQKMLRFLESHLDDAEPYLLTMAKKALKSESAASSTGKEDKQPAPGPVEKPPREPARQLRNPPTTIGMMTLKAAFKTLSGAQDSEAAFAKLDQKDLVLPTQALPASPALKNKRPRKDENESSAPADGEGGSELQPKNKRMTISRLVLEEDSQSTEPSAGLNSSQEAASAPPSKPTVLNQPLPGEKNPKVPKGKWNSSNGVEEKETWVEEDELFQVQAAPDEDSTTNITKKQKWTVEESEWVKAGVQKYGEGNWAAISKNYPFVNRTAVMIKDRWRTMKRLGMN


What was measured:
[1] = target: TRF2 (UniProt Q15554); assay: AFM imaging; details: N = 126; same conditions as T270; EMSA: 5 nM DNA, 100 nM TRF2, agarose gel; buffer, salt, pH and temperature not given in the material; AFM compaction comparison of TRF2ΔB at 300 nM protein
[2] = target: T1, TRF2 (full length, recombinant …); assay: AFM volume analysis; TRF2 (400 nM, mixed with an equal volume of DNA) incubated with linear T270 DNA (270 TTAGGG repeats) for 30 min in 50 mM HEPES, 150 mM KCl, pH 7.5, diluted 10 fold and deposited on mica; volumes of small DNA-bound complexes (< 500 nm^3); details: remark: other sources report otherwise
[3] = target: T1, TRF2 (full length, recombinant …); assay: AFM volume analysis; TRF2 protein alone deposited on mica; AFM volume converted to oligomeric state by a calibration curve of volume against molecular weight; monomer to dimer; details: remark: other sources report otherwise

| stoichiometry N [2] | stoichiometry N [3] | Molecule | binding signal (% DNA with large complexes) [1] |
| --- | --- | --- | --- |
|  |  | DNA with no telomeric sequences | < 8 |
| 2 and 4 | 2 | TRF2 (full length, recombinant His6-tagged), Q15554 1-542 (natural protein) MAAGAGTAGPASGPGVVRDPAASQPRKRPGREGGEGARRSDTMAGGGGSSDGSGRAAGRRASRSSGRARRGRHEPGLGGPAERGAGEARLEEAVNRWVLKFYFHEALRAFRGSRYGDFRQIRDIMQALLVRPLGKEHTVSRLLRVMQCLSRIEEGENLDCSFDMEAELTPLESAINVLEMIKTEFTLTEAVVESSRKLVKEAAVIICIKNKEFEKASKILKKHMSKDPTTQKLRNDLLNIIREKNLAHPVIQNFSYETFQQKMLRFLESHLDDAEPYLLTMAKKALKSESAASSTGKEDKQPAPGPVEKPPREPARQLRNPPTTIGMMTLKAAFKTLSGAQDSEAAFAKLDQKDLVLPTQALPASPALKNKRPRKDENESSAPADGEGGSELQPKNKRMTISRLVLEEDSQSTEPSAGLNSSQEAASAPPSKPTVLNQPLPGEKNPKVPKGKWNSSNGVEEKETWVEEDELFQVQAAPDEDSTTNITKKQKWTVEESEWVKAGVQKYGEGNWAAISKNYPFVNRTAVMIKDRWRTMKRLGMN |  |

From PMC4746636
